Results published in the MegaScale stability set (Tsuboyama et al. 2023).

B1: 6NMW (parent)
chain: QGDIVVALYPYDGIHPDDLSFKKGEKMKVLEEHGEWWKAKSLLTKKEGFIPSNYVAKLN
B2: HEEH_KT_rd6_3632 (parent)
chain: DAEELIELVERALKEGREIILLGVRITSEEAGKWFIEWIRRFL

Variants of: B1
Test: folding stability dG (cDNA display proteolysis); higher = more stable
Details: PBS, room temperature

Folding stability dG [kcal/mol]: each site, then its substitutions
Q1: H 3.79 | P 3.96 | W 4.06 | E 3.97 | S 3.89 | F 3.8 | K 4.1 | T 4.18 | G 3.67 | M 3.74 | R 3.79 | N 3.69 | Y 4.04 | D 3.76 | L 4.29 | A 3.87 | C 4.65
D3: Q 4.27 | S 4.3 | L 4.43 | C 4.72 | E 3.77 | H 4.61 | V 4.37 | R 4.02 | T 4.52 | Y 4.84 | K 4.12 | N 3.87 | I 4.5 | A 4.25 | F 4.91 | M 4.59 | P 3.09 | G 3.47
I4: H 1.74 | L 3 | A 0.908 | M 2.52 | N 0.755 | G 0.464 | S 0.94 | Y 2.98 | Q 1.21 | D 1.12 | P -0.054 | T 2.35 | K 0.841 | V 3.08 | W 2.71 | C 2.58 | F 2.76 | E 1.53 | R 0.874
A7: T 1.07 | I -0.263 | C 1.42 | G 2.64 | S 1.39 | F -0.602 | Y -0.494 | L -0.675 | V 0.268 | M 0.441 | E 0.11
P10: W 2.74 | R 4.08 | Y 2.66 | L 2.23 | C 3.89 | T 4.18 | E 3.31 | G 3.56 | Q 3.77 | N 4.84 | M 2.75 | K 3.78 | V 2.27 | H 3.93 | S 4.61 | A 4.23 | F 2.47 | I 1.94
G13: S 3.39 | I 0.929 | P 2.3 | T 1.74 | Q 2.01 | Y 0.268 | L 0.825 | K 2.6 | D 0.145 | C 1.96 | E 1.2 | V 1.14 | F 0.38 | M 1.91 | H 0.829 | W 0.736 | R 2.26 | N 1.32
I14: V 3.97 | W 2.68 | K 3.81 | Y 3.08 | H 3.13 | S 3.09 | P 2.57 | Q 3.67 | A 3.22 | N 3.02 | T 3.68 | M 3.36 | E 2.98 | G 2.9 | L 3.51 | D 2.68 | F 2.99 | C 4.14
G2: P 2.98 | L 3.21 | A 3.27 | Y 3.95 | I 3.12 | E 3.29 | V 3.15 | R 3 | S 3.54 | M 3.38 | C 4.54 | N 3.5 | K 2.9 | D 3.46 | W 3.93 | F 3.9 | Q 3.21 | H 3.74 | T 3.29
P16: A 3.29 | C 3.56
H15: K 3.48 | A 3.22 | C 4.24 | E 2.54 | F 3.5 | S 3.26 | N 3.65 | R 3.93 | P 3.63 | W 3.39 | Q 3.03 | G 3.99 | I 1.63 | D 2.54 | L 2.87 | V 1.77 | M 2.85 | Y 3.75
V6: G 0.392 | R 1.9 | Y 3.49 | A 1.29 | C 3.01 | W 2.05 | H 1.5 | T 2.18 | S 1.15 | D -0.164 | F 2.89 | E 2.18 | Q 2.01 | I 4.06 | K 1.52 | L 2.18 | M 2.59 | N 0.282
V5: C 3.86 | W 4.11 | F 3.21 | K -0.356 | Q -0.613 | S 0.271 | R 0.357 | T 0.383 | M 1.65 | L 1.66 | G -0.073 | A 2.41 | E -0.712 | Y 4.22 | H 1.41 | I 2.37
Y11: V 0.147 | H 1.71 | C 1.5 | Q -0.356 | A -0.375 | E -0.944 | N 0.567 | I 0.264 | M 0.669 | K 0.796 | L 0.851 | F 3.93 | R 2.25 | W 4.27 | S 0.369
D12: Y 3.86 | A 3.85 | P 3.14 | I 4.38 | T 4.32 | V 4.41 | N 3.98 | H 4.08 | W 3.78 | C 4.27 | F 3.95 | R 4.19 | K 4.34 | G 2.7 | S 3.78 | L 3.69 | M 3.84 | Q 4.13
L8: K 2.3 | E 0.697 | S 0.987 | W 1.21 | A 0.801 | H 1.06 | N 1.23 | C 3.47 | F 1.24 | Q 1.62 | G 0.062 | T 1.24 | M 2.78 | I 3.04 | R 1.94 | Y 1.02 | V 2.29 | D -0.146
Y9: D 1.08 | A 2.74 | N 1.61 | H 2.81 | M 3.43 | K 3.61 | G 1.46 | W 3.66 | T 1.87 | L 3.06 | R 4.07 | I 2.72 | V 2.5 | S 1.95 | C 4.44 | Q 3.15 | E 2.37 | F 3.72

Variants of: B2
Test: as above
Details: PBS, room temperature

Folding stability dG [kcal/mol], by site and new letter:
R41: G 3.45 | D 3.05 | E 3.37 | Y 3.81 | Q 3.6 | K 3.76 | T 3.63 | L 3.81 | N 3.57 | H 3.64 | A 3.62 | I 3.74 | V 3.7 | C 4.34 | W 4.14 | M 3.93 | P 2.84 | S 3.72 | F 3.95
L43: S 3.17 | A 3.35 | W 3.89 | K 3.09 | Q 3.22 | I 3.61 | H 3.17 | E 2.91 | G 3.03 | P 2.62 | R 3.03 | Y 3.81 | F 4.01 | V 3.48 | T 3.24 | M 3.81 | D 2.75 | N 2.97
F42: T 3.35 | N 3.19 | D 2.51 | I 3.67 | S 3.15 | G 3.06 | R 3.29 | Q 3.29 | W 4.07 | Y 3.72 | E 2.91 | P 2.5 | V 3.58 | H 3.45 | M 3.76 | L 3.73 | A 3.21 | K 3.15
R40: N 3.14 | Q 3.32 | K 3.69 | L 3.83 | S 3.27 | Y 3.69 | I 3.77 | T 3.46 | F 3.87 | D 2.87 | H 3.32 | E 2.85 | G 3.04 | W 3.85 | M 3.89 | P 2.68 | V 3.48 | C 4.03
